These results are taken from patent US20120237528A1.

The experiment concerns the target Innovin, lyophilized recombinant human tissue factor combined with phospholipids (human) (UniProt P13726). As to the kind of experiment: cell-based or functional assay.

Sequence of Innovin, lyophilized recombinant human tissue factor combined with phospholipids (human) (P13726 33-295 limits assumed): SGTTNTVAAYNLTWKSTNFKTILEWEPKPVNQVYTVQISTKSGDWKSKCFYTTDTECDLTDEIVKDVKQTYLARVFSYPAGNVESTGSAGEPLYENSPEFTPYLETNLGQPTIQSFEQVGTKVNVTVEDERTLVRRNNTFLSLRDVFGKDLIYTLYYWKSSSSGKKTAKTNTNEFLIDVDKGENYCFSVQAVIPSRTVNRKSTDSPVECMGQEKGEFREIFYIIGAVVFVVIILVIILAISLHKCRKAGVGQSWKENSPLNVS

In the case of “CNTO 860, humanized form of the antibody 5G9, human IgG1/Kappa”, the T½ Max (seconds), coagulation of human plasma was above 900 s and the coagulation time is above 1800 s.
